Experimental data reported in patent publication US20250034275A1 (CHIA TAI TIANQING PHARMACEUTICAL GROUP, published 2025).
Where a chain is given by its changes, count along the chain named. Values belong to the molecule of their own block, whether it stands above or below them.

Assays:
[1] = biological target: human Trop-2 (on the surface of human cell lines) (human) (UniProt P09758); experiment: flow cytometry, Capan-1 cells, isotype control at 3 ug/mL (background)
[2] = biological target: human Trop-2 (on the surface of human cell lines) (human) (UniProt P09758); experiment: flow cytometry, HCC1806 cells, isotype control at 3 ug/mL (background)
[3] = biological target: human Trop-2 (on the surface of human cell lines) (human) (UniProt P09758); experiment: flow cytometry, PC-3 cells, isotype control at 3 ug/mL (background)
[4] = biological target: human Trop-2 (on the surface of human cell lines) (human) (UniProt P09758); experiment: flow cytometry, HUVEC cells, isotype control at 3 ug/mL (background)
[5] = biological target: human Trop-2 (on the surface of human cell lines) (human) (UniProt P09758); experiment: flow cytometry, OVCAR-3 cells, isotype control at 3 ug/mL (background)
[6] = biological target: human Trop-2 (on the surface of human cell lines) (human) (UniProt P09758); experiment: flow cytometry, HCC38 cells, isotype control at 3 ug/mL (background)
[7] = biological target: human Trop-2 (on the surface of human cell lines) (human) (UniProt P09758); experiment: flow cytometry, NCI-H322 cells, isotype control at 3 ug/mL (background)
[8] = biological target: T1, human Trop-2-His (human, UniProt P09758 27-274, limits assumed); experiment: SPR (Biacore 8K), antibody captured, Trop-2-His as analyte
T1 construct: by analogy with the macaque construct it is probably the extracellular domain with a His tag; also called Trop-2-His protein
T1 sequence: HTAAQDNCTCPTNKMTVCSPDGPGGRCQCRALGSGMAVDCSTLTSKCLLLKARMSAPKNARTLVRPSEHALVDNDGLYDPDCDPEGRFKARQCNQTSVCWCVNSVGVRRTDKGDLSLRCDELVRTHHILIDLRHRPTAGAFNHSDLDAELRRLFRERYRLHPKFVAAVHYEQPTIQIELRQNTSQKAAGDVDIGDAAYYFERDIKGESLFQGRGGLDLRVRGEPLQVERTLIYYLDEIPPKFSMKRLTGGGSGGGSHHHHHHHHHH
Description: The affinity of antibodies for human Trop-2-His was detected in the form of antibody capturing. The antibody was affinity-captured by a CM5 (Cat. #29149603, GE) biosensor chip conjugated with an anti-human IgG antibody (from human antibody capture kit, Cat. #29234600, GE), then the antigen human Trop-2-His flowed on the surface of the chip, and a Biacore 8K instrument was used for detecting reaction signals in real time to obtain association and dissociation curves. After dissociation was completed for each assay cycle, the chip was washed clean and regenerated with a regeneration buffer, 3M MgCl₂ (from human antibody capture kit, Cat. #29234600, GE). The association and dissociation curves were collected by Biacore 8K Control Software 3.0 in real time, and the data were analyzed by Biacore Insight Evaluation Software 3.0. The data were fitted using a Langmuir 1:1 model after double subtraction (namely, in each cycle, the contrast channel signal was subtracted from the experimental channel signal, and the sample signal was subtracted from the blank signal), and the association rate constant Ka, the dissociation rate constant Kd, and the equilibrium constant KD were calculated.

[9] = biological target: T2, human Trop-2 (on the surface of human cell lines) (human, UniProt P09758 27-323); experiment: flow cytometry, HCC38 cells
T2 construct: Endogenous Trop-2 on NCI-H322, Capan-1, PC-3, HUVEC, OVCAR-3, HCC38 and HCC1806 cells; also called TACSTD2
T2 sequence: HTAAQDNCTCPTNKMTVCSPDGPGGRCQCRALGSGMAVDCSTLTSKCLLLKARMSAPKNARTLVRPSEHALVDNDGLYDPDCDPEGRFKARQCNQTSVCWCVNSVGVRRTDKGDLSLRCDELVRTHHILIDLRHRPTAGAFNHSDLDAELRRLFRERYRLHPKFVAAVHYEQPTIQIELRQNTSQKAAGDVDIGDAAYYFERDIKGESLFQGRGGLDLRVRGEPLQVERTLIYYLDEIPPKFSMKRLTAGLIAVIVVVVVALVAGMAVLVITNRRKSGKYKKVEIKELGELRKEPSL
Method: (§1) Tumor cells expressing Trop-2 were prepared into a cell suspension (0.5-1×10⁶ cells/mL) using the FACS buffer (Miltenyi Biotec, 130-091-221), and the cell suspension was added to a 96-well V-bottom plate at 100 μL/well. After centrifugation and removal of the supernatant, the test antibodies diluted with the FACS buffer to different concentrations (0.006 nM-100 nM) were each added at 50 μL/well. The mixture was incubated in the dark in a 4° C. refrigerator for 1 h. The plate was then washed 3 times with the FACS buffer by centrifugation at 300 g, and Alexa Fluor 488 goat anti-human IgG (H+L) (Bio-legend, 409304, 1:500 dilution) at working concentration was added. The mixture was incubated in the dark in a 4° C. refrigerator for 40 min. The plate was then washed 3 times with the FACS buffer by centrifugation at 300 g, the geometric mean fluorescence intensity (MFI) was measured on a Sartorius iQue3 flow cytometer, and the binding EC₅₀ values of the antibodies for tumor cells with different Trop-2 expression levels were calculated

[10] = biological target: T2, human Trop-2 (on the surface of human …); experiment: flow cytometry, HCC1806 cells
Method: as §1

[11] = biological target: T2, human Trop-2 (on the surface of human …); experiment: flow cytometry, OVCAR-3 cells
Method: as §1

[12] = biological target: T2, human Trop-2 (on the surface of human …); experiment: cell-based or functional assay
[13] = biological target: T3, Macaque Trop-2-His (macaque, UniProt P09758 27-274 (human entry)); experiment: ELISA, plate-coated macaque Trop-2-His
T3 construct: Extracellular domain of macaque Trop-2 recombinantly linked to His; also called monkey Trop-2-His protein; monkey Trop-2
T3 chain: T1 sequence with M36V, S67N, I204V
Method: (§2) After the liquid was discarded, 2% BSA (SIGMA, B2064-100G) diluted with PBS was added at 300 μL/well for blocking, and the mixture was incubated at 37° C. for 2 h. After the blocking was completed, the blocking buffer was discarded, the plate was washed 3 times with the PBST buffer (pH 7.4 PBS containing 0.1% tween-20), the antibody solution diluted in a gradient was added at 100 μL/well, and the mixture was incubated at 37° C. for 1 h. After the incubation was completed, the plate was washed 3 times with PBST, the goat anti-human IgG (H+L) (JacksonImmunoResearch, 109-035-098, 1:5000 dilution) was added at 100 μL/well, and the mixture was incubated at 37° C. for 1 h. After the plate was washed 3 times with PBST, a TMB chromogenic substrate (TIANGEN, PA107-01) was added at 100 μL/well. The mixture was incubated at room temperature for 10-15 min, and then 1 M H₂SO₄ was added at 50 μL/well to terminate the reaction. The absorbance values at 450 nm were taken using a microplate reader. The binding curves of antibodies for antigen were fitted using software, and the EC₅₀ values were calculated.

[14] = biological target: T1, human Trop-2-His; experiment: ELISA, plate-coated human Trop-2-His
Method: as §2, with “with” for “with the”

[15] = biological target: T2, human Trop-2 (on the surface of human …); experiment: cell-based or functional assay; remark: listed apart in the source

Molecule: human IgG1 control antibody
MFI [1]: 65600 | MFI [2]: 16200 | MFI [3]: 8920 | MFI [4]: 20500 | MFI [5]: 11800 | MFI [6]: 32400 | MFI [7]: 21300

B1: hz-Ab35-2.1 (antibody, human IgG1, kappa, V domains shown)
VH: QVQLVQSGAEVKKPGASVKVSCKASGYTFTSSDINWVRQRPGQGLEWMGWIYPRDGSKKYAQKFQGRVTMTVDTSTSTVYMELSSLRSEDTAVYYCATRFATVVSNYGLDPWGQGTLVTVSS
VL: EIVLTQSPATLSLSPGERATLSCSASSSVNYIYWYQRKPGQAPRLLIYDTSNLASGIPARFSGSGSGTDYTLTISSLEPEDFAVYYCQQWNSYPLTFGQGTKVEIKR
notes: Humanized antibody
Kd [8]: 0.444 nM | koff [8]: 0.000194 s⁻¹ | kon [8]: 436000 M⁻¹ s⁻¹ | EC50 [9]: 0.89 nM | EC50 [10]: 0.76 nM | EC50 [11]: 0.9 nM | ADCC, PBMC killing (LDH), H322, EC50 [12]: 0.02 nM | ADCC, PBMC killing (LDH), H322, Maximum killing (%) [12]: 51.3% | ADCC, PBMC killing (LDH), HCC1806, EC50 [12]: 0.03 nM | ADCC, PBMC killing (LDH), HCC1806, Maximum killing (%) [12]: 35.2% | EC50 [13]: 0.056 nM | EC50 [14]: 0.055 nM | ADCC reporter (Jurkat-CD16a v158-NFAT-luciferase), target cell H322, EC50 [15]: 0.1 nM | ADCC reporter (Jurkat-CD16a v158-NFAT-luciferase), target cell HCC1806, EC50 [15]: 0.23 nM

B4: hz-Ab21-2.1 (antibody, human IgG1, kappa, V domains shown)
VH: EVQLVESGGGLVKPGGSLRLSCAASGFTLRNYGVHWVRQAPGKGLEWVGVIWSSGTTDYAAPVKGRFTISKDNSKNTLYLQMNSLKTEDTAVYYCTRDGDYDYYTMDYWGQGTLVTVSS
VL: EIVLTQSPATLSLSPGERATLSCRASKSVSTSAYSYIHWYQQKPGQPPRLLIYLTSNLESGIPARFSGSGSGTDFTLTISSLEPEDFAVYYCQHSRELPYTFGQGTKVEIKR
notes: Humanized antibody
Kd [8]: 1.38 nM | koff [8]: 0.000559 s⁻¹ | kon [8]: 404000 M⁻¹ s⁻¹ | EC50 [9]: 0.64 nM | EC50 [10]: 0.63 nM | EC50 [11]: 0.68 nM | ADCC, PBMC killing (LDH), H322, EC50 [12]: 0.02 nM | ADCC, PBMC killing (LDH), H322, Maximum killing (%) [12]: 44.5% | ADCC, PBMC killing (LDH), HCC1806, EC50 [12]: 0.12 nM | ADCC, PBMC killing (LDH), HCC1806, Maximum killing (%) [12]: 32.2% | EC50 [13]: 0.064 nM | EC50 [14]: 0.214 nM | ADCC reporter (Jurkat-CD16a v158-NFAT-luciferase), target cell H322, EC50 [15]: 0.21 nM | ADCC reporter (Jurkat-CD16a v158-NFAT-luciferase), target cell HCC1806, EC50 [15]: 0.39 nM

B5: hz-Ab21-2.2 (antibody, human IgG1, kappa, V domains shown)
VH: B4 VH with A60N, P62A, V63F, K64I, G65S
VL: B4 VL
notes: Humanized antibody
Kd [8]: 1.33 nM | koff [8]: 0.000611 s⁻¹ | kon [8]: 460000 M⁻¹ s⁻¹ | EC50 [9]: 0.66 nM | EC50 [10]: 1.18 nM | EC50 [11]: 0.8 nM | ADCC, PBMC killing (LDH), H322, EC50 [12]: 0.07 nM | ADCC, PBMC killing (LDH), H322, Maximum killing (%) [12]: 51.6% | ADCC, PBMC killing (LDH), HCC1806, EC50 [12]: 0.18 nM | ADCC, PBMC killing (LDH), HCC1806, Maximum killing (%) [12]: 40.6% | EC50 [13]: 0.081 nM | EC50 [14]: 0.223 nM | ADCC reporter (Jurkat-CD16a v158-NFAT-luciferase), target cell H322, EC50 [15]: 0.15 nM | ADCC reporter (Jurkat-CD16a v158-NFAT-luciferase), target cell HCC1806, EC50 [15]: 0.26 nM

Further lines, with some results ahead:

Kd [8]: 0.675 nM | koff [8]: 0.000281 s⁻¹ | kon [8]: 416000 M⁻¹ s⁻¹ | EC50 [9]: 0.91 nM | EC50 [10]: 0.61 nM | EC50 [11]: 0.74 nM | EC50 [13]: 0.031 nM | EC50 [14]: 0.065 nM | ADCC reporter (Jurkat-CD16a v158-NFAT-luciferase), target cell H322, EC50 [15]: 0.11 nM | ADCC reporter (Jurkat-CD16a v158-NFAT-luciferase), target cell HCC1806, EC50 [15]: 0.21 nM
B2: hz-Ab35-2.3 (antibody, human IgG1, kappa, V domains shown)
VH: B1 VH with A61N, Q62E, Q65K
VL: B1 VL
notes: Humanized antibody
ADCC, PBMC killing (LDH), H322, EC50 [12]: 0.02 nM | ADCC, PBMC killing (LDH), H322, Maximum killing (%) [12]: 50.3% | ADCC, PBMC killing (LDH), HCC1806, EC50 [12]: 0.03 nM | ADCC, PBMC killing (LDH), HCC1806, Maximum killing (%) [12]: 35.7%

Kd [8]: 8.82 nM | koff [8]: 0.00357 s⁻¹ | kon [8]: 405000 M⁻¹ s⁻¹ | EC50 [9]: 0.91 nM | EC50 [10]: 0.58 nM | EC50 [11]: 0.88 nM | EC50 [13]: 0.05 nM | EC50 [14]: 0.054 nM | ADCC reporter (Jurkat-CD16a v158-NFAT-luciferase), target cell H322, EC50 [15]: 0.11 nM | ADCC reporter (Jurkat-CD16a v158-NFAT-luciferase), target cell HCC1806, EC50 [15]: 0.26 nM
B3: hz-Ab35-2.2 (antibody, human IgG1, kappa, V domains shown)
VH: B1 VH with A61N, Q62E, Q65K, T98R
VL: B1 VL
notes: Humanized antibody
ADCC, PBMC killing (LDH), H322, EC50 [12]: 0.01 nM | ADCC, PBMC killing (LDH), H322, Maximum killing (%) [12]: 51.4% | ADCC, PBMC killing (LDH), HCC1806, EC50 [12]: 0.02 nM | ADCC, PBMC killing (LDH), HCC1806, Maximum killing (%) [12]: 35.9%
